Laboratory results from article PMC3324619.

Experiments:
[1] = target: CytERM-EGFP (not stated | Aequorea victoria) (UniProt P00180)
CytERM-TagRFP = CytERM-TagRFP (UniProt P00180)

Sequence of CytERM-TagRFP (P00180 whole entry): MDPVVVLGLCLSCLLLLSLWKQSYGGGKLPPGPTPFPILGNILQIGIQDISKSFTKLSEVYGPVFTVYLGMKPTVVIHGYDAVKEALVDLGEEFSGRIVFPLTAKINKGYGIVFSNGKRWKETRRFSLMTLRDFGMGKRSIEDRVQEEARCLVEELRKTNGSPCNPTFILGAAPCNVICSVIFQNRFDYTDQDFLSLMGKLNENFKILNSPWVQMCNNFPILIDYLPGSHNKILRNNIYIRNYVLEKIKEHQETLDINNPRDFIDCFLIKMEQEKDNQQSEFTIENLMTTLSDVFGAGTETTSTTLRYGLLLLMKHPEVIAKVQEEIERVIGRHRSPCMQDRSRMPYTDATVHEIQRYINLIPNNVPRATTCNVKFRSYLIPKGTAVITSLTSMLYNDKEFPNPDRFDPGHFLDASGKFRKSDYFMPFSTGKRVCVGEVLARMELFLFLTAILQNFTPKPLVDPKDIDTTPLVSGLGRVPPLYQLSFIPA

Row | OSER assay: average structure area, U2OS cells [1] | OSER assay: ratio of structure MFI to nuclear envelope MFI, U2OS cells (CytERM-TagRFP) | Substance
1 | 8.7 μm^2 |  | CytERM-EGFP (from UniProt P00180 1-29)
2 |  | 3.9 | CytERM-TagRFP (from UniProt P00180 1-29)
